Patent US20230090156A1 (NANYANG TECHNOLOGICAL UNIVERSITY, published 2023)
Values belong to the binder of their own block, whether it stands above or below them.

Target: T1, human cANGPTL4 (C-terminal fragment of Angiopoietin-like 4 protein) (human, UniProt Q9BY76 186-406, limits assumed)
T1 construct: domain: C-terminal fragment (cANGPTL4); Purified cANGPTL4 was immobilised by amine coupling on the CM5 chip for SPR and on carboxylated microwell plates for ELISA; also called purified cANGPTL4; human cANGPTL4 antigen
T1 sequence (looked up): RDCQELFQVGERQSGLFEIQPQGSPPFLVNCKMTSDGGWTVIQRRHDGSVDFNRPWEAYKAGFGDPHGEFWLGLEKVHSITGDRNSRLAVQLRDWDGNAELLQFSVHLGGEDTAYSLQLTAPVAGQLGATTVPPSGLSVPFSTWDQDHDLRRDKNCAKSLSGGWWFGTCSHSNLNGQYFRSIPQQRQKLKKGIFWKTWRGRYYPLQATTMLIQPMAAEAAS
Experiment: SPR (BIACORE 3000), cANGPTL4 amine-coupled to CM5 chip, antibody as analyte
Experimental: Surface Plasmon Resonance (SPR): Sensor CM5 chips and amine coupling kits were from GE Healthcare. Purified cANGPTL4 was immobilized onto a CM5-carboxylated dextran sensor chip by amine coupling using the Surface Prep Module of BIACORE 3000 as recommended by the manufacturer (BIAcore). Antuzumab (0.16, 0.32, 0.63, 1.25, 2.50, and 5.0 μm) diluted and buffered with 50 mm Tris, pH 8.0, was introduced into the cANGPTL4-conjugated CM5 chip at a flow rate of 5 μI/min for 10 min with running buffer (50 mm Tris, pH 8.0, 100 mm NaCl). After incubation for 45 s, the chamber was washed with the same buffer, and the bound molecules were subsequently eluted using 10 mm glycine, pH 6.0. The CM5 chip was reused after washing with running buffer for 10 min at 20 μI/min. Each sensorgram was corrected by subtracting a sensorgram obtained from a reference flow cell with no immobilized protein. Global fitting of the SPR data was used to determine the association (Kₐₛₛ) and dissociation (Kdiss) with Scrubber 2 software. Values are given as the mean±S.D. of three independent preparations of Antuzumab.

B1: Antuzumab 1 (antibody, V domains shown)
VH: QVTLKESGPTLVKPTQTLTLTCTFSGFSLSTSGMGVGWIRQPPGKALEWLAHIWWDDDKYYNPSLKSRLTISKDTSKNQVVLTMTNMDPVDTATYYCARKDYGSSYDYWGQGTTVTVSS
VL: DIVMTQSPLSLPVTPGEPASISCKASQSVDYDGDSYLNWYLQKPGQSPRLLIYTASNLESGVPDRFSGSGSGTDFTLKISRVEAEDVGVYYCFQSNEDPWTFGQGTKLEIK
notes: Humanized monoclonal antibody made in CHO cells; also called ANG49; ANGH3 + ANGK3
Fold increase (affinity against control 11F6C4): 7.86 fold
Kd: 1.05 nM
koff: 0.000693 s⁻¹
kon: 658000 M⁻¹ s⁻¹

B4: Antuzumab 2 (antibody, V domains shown)
VH: QITLKESGPTLVKPTQTLTLTCTFSGFSLSTSGMGVGWIRQPPGKALEWLAHIWWDDDKYYNPSLKSRLTITKDTSKNQVDLTMTFMDPWDTATYYCAHKDYGSSYDYWGQGTLVTVSS
VL: DIQMTQSPSSLSASVGDRVTITCKASQSVDYDGDSYLNWYQQKPGKAPNLLIYTASNLESGVPSRFSGSGSGTDFTLTISSLQPEDFATYYCQQSNEDPWTFGEGTKVEIK
notes: Humanized monoclonal antibody made in CHO cells; also called ANG50; ANGH4 + ANGK4
Fold increase (affinity against control 11F6C4): 5.37 fold
Kd: 1.54 nM
koff: 0.000764 s⁻¹
kon: 495000 M⁻¹ s⁻¹

Continued, values first:

Fold increase (affinity against control 11F6C4): 1.85 fold
Kd: 4.47 nM
koff: 0.000948 s⁻¹
kon: 212000 M⁻¹ s⁻¹
B2: Antuzumab 3 (antibody, V domains shown)
VH: QITLKESGPTLVKPTQTLTLTCTFSGFSLSTSGMGVGWIRQPPGKALEWLAHIWWDDDKYYNPSLKSRLTITKDTSKNQVVLTMTNMDPVDTATYYCARKDYGSSYDYWGQGTLVTVSS
VL: DIVMTQSPDSLAVSLGERATINCKASQSVDYDGDSYLNWYQQKPGQPPKLLIYTASNLESGVPDRFSGSGSGTDFTLTISSLQAEDVAVYYCQQSNEDPWTFGQGTKVEIK
notes: Humanized monoclonal antibody made in CHO cells; also called ANG27; ANGH1 + ANGK1

Fold increase (affinity against control 11F6C4): 1 fold
Kd: 8.28 nM
koff: 0.000905 s⁻¹
kon: 109000 M⁻¹ s⁻¹
B3: murine monoclonal antibody mAb11F6C4 (antibody, V domains shown)
VH: QITLKESGPGILKPSQTLSLTCSFSGFSLSTSGMGVGWIRQPSGKGLEWLAHIWWDDDKYYNPSLKSQLTISKDTSRNQVFLKITSVDTADTATYYCARKDYGSSYDYWGQGTTLTVSS
VL: DIVLTQSPASLAVSLGQRATISCKASQSVDYDGDSYLNWFQQKPGQPPKLLIYTASNLESGIPARFSGSGSGTDFTLNIHPVEEEDAATYYCQQSNEDPWTFGGGTTLEIK
notes: Murine monoclonal antibody, the parent of the humanized antibodies; also called Control 11F6C4; original mouse-derived mAb
